This data set can be described thus: soluble on expression in E. coli; label from the status in PepcDB or PDB records.
For “MEGLLIHAVLRELEKELPAQNLGLAFPEEGTAAILLKGRTGRLFNLVLHYRPPTPSLALEPGRLQGEPKTPFQRQLQARVKGPLVEASQLKLDRVAFFRFAGEKGFVDAPPSVLVLEATGRNANLLLLDEEGRILGVDRVITKEVNRYRELRPGLPYTPPPPYRKLDPRTLAEEDLLPLLGKPLKEVIRHVDGVGQELLRELARRAGLTPETPLDEAGLGRVYRALKTLVEDPSLRTELSEELRRRWAEEEKEALRKPLLEALDREIRTLKARLGDYQEALERLEEAEALRRRADLLLARLKEVPKGAEKVVLEGFDGKPVEIPLDPALSPQENARKLYDRARRLEELAEKALDLIPKTEARIRELEAEKERLRTLDLEGLLALAQRPKGEKGLKVGLRYTSPSGFLVLVGRNAKENDLLTRAAHSEDLWFHAQGVPGSHVILKTEGKNPPLEDLLFAARLAAYHSKARGERQVPVDYTRKKHVWRPRKAAPGQVLYTQAKTLFVEGLLPEPREEA”, the “soluble on expression in E. coli” value was “soluble”.
Regarding “MEHKIVHVGDIPVANDKPFTLFAGMNVLESRDLAMQICEHYVKVTDKLGIPYVFKASFDKANRSSVHSYRGPGLEEGMKIFQELKETFGVKIITDVHTEAQAQPVADVVDVIQLPAFLARQTDLVEAMAKTGAVINVKKPQFMSPGQVGNIVEKFAECGNDKVILCERGSCHGYDNLVVDMLGFGVMKQASNGSPIIFDVTHSLQMRDPSGAASGGRREQTVELAKAGLATGIAGLFIEAHPNPDKARCDGPSALPLDKLEPFLAQMKALDDLIKSFAHIDIR”, the “soluble on expression in E. coli” value is “not soluble”.
Turning to “MEIDWLNAIPDSEDSEEDEEERQERARLLKEKEEEREACKKRYLERIEREEAQRFGKQFKIDPLTFAERLERKLIPAEKKQRYREFIPCVVDHFGGTDVHFVKAMESIKTENQLLDFLTAAHKPLIEQTEDSVLHDWLAEFYKETVTSLLEMTSITDHDLKCFKVGNVFDEVRTNAIQKKVQKMEMENFAERVREAKIKEAEERKATAEATRDVLESLEGMTLSHVKHDELEDELNTIALEELHSTTRDTSPPRTRLSTRAQSQLNAMVKHLFVPAAPTTSTEVPMEMDKDDDEMDAYDDSDLKILFSSTTKESLKMEMGEENDECNFEPSQVSKYPSFQASSQFDETRRYDYDEEGDNKELARLRRPTWRKILNYEKRIGTNFHRFTNAENANLWRRNLYEDKRKKTSKVQFVDYDSPLNKMRLFVRPNEQFFNADDGPMTDRIDFSLSDGFNVLATRKIMSPLVCGSNYDCEFMARTREGPQYLVRKTQSWMHSYCGNILGRFWYLRDRHADKYPGVKDSNYDQKRRQNFGLLRYYTLEELIEVFGLLLPDVQIAMRRGVRRENMPVSTVVKLKEKDREAVESPVQGVLLLTDWRLVHLFDNTAIVNAIIHYFPTNLGGVFFEAMTEYLTELLLDNTIEFHTIIFAFGGTPTFKKQDFLAFWKKLIVRTTQSIDVFWMAQDWCDGLNSTQEEIDQLNEFNHYVEQMFTMMRKNGNINYNYCDIRKQYNIPSLDPSFNRPNDFLLLEPIYRAYINHFVDECNCYLKGPFVKCQPRVHNGYAQRNGTKLEFSK”, the “soluble on expression in E. coli” value is recorded as “soluble”.
As for “MEIEKENGSKRLAVLIDADNAQASVLGELLAEISKYGTLNIKRAYGDWTSSNLKSWKEHLHKYAIAPIQQFNYTSGKNATDSALIIDAMDLLHDAPLEGFCLVSSDSDFTRLATRIRESGLVVYGFGEKKTPEAFVAACDKFIYTEILRQEEQRRPESSWNDSWSKSESKALKSIIQPAIKATMKEDDWVPLASIGLYISKNHPAFDPRNYGYDKLGRLIETLDFVELKKIPFKDGSSNTHVMVRLRSLEHHHHHH”, the entry is “not soluble”; as for “MEIERKFLVLNDDFKAKATAVHNIIQAYLVADERCTVRIRLCNDEAYLTIKGKTNEGGLSRSEYEYSVPFEEAKEMLTLCLPGYIMKQRYCVPHKGHVWEVDVFEGRHKGLVIAEVELATEDESIELPDWIGNEVTGDKRYYNSFIAGIQK”, “soluble”.
The value for “MEILRRECGAVEENAYIVKLSSGIDFIIDPGFSSSEWVLENAKNPKAILITHGHYDHVWDGAQLSKLLKNTPIYAPKDDVFMLENDIFHLGMPVFSPNFSVPCNKGCTTLEIANTTIKYWHFPGHTPGCSIIEIEGVIFSGDFIFYRSIGRYDFPYSNEKDMKESLLRFQNLDFPKDIEIYPGHGDKTSFFAEREHSKIWVSRMALEHHHHHH” was “not soluble”; that for “MEKEKSLMKKQSKKSKKQNIEINYLDLIPVRSEELHWHKDIKGRVILDVENTGWFNKIAQTVFNKPQYTKVHLDAQGTFIWPLIDGKRTVTDIAALVKEEFGEAAEPLYPRIIKYFQIVESYHFIKFANMPSK” was “not soluble”; that for “MEKGTPPTHDSDNWMGRAKEIGNGGWDQFQFLFFDPNGYLYAVSNDKLYKASPPQSDTDNWIARATEIGSGGWSGFKFLFFHPNGYLYAVRGQRFYKALPPVSNQD” was “soluble”.
For “MEKIIITATAESIEQVKALLAAGVDRIYVGEANYGLRLPHNFSYDELRQIAKLVHDAGKELTVACNALMHQDMMDQIKPFLDLMIEIAVDYLVVGDAGVFYVNKRDGYNFKLIYDTSVFVTSSRQVNFWGQHGAVESVLAREIPSAELFTLAENLEFPAEVLVYGASVIHHSKRPLLENYYHFTKIDDEVSRERGLFLAEPGDASSHYSIYEDNHGTHIFINNDIDMMSKLGELYAHGLTHWKLDGIYCPGDDFVAITKLFIQAKTLLEAGQFTQEEAEKLDQAVHAHHPAGRGLDTGFYEFDPKTVK”, the “soluble on expression in E. coli” value is on record as “not soluble”.
“MEKKITQEGLARMIDKGMGTLLALPEIEKKKKSGDLPDNFKMEDGFGVYRVEVGGNEYLCVTNILCNKCERVNGKVKRCEAHKKKRKARKVRKDGDVADDTSDREKLGGLRHVNDEEEEEDKIEGAVTPDFVMTPGIGGAIILVPVDAKNNDRAGPPAKGLNHVKGILVRGAGNIPQFIPNDRLTKAHKLRFDNYIEGELNLVNGKEVFVPNNLGAAKMDEKNAQDVAKAAVADKVDQKVVDAIGKDMVVAVQVDVADNGMPVMKVLEGKPKDKETPVGIIVKANDQVQFVQIVGRELGGGKDAKMMPCTIPENGKVGDVIADVYVNKEGKAVSAKPGDAPAGAPVIGQVIVGQNDQLVFVAKGENKDDAVKKGAKMTPEMKEKLEQAQAKVQAAVTGQSADHIQEQVNRIGVPEAAATSAANGGNNAGGGGSSAEVRSVGFGAQQFGGSQFARPIPAGGGGGGSGGYGAGGGGSGGYGAGGAGGARNSASNGSYGSSANEVKSVGFGAQQYGGSVFAKPSGTGGGYVSAGSSARKSGESGAGGGGAGGGKAGGAKNSASYGSSANEVKSVGFGAQQYGGSVFIRK”: the “soluble on expression in E. coli” value was “not soluble”.
Take “MEKLRMNVQGRVQGVGFRYMTKMVADQLGVTGSVRNEDDGSVSITAIAPEDIMETFIKKIKDSPSPAGRVTYVDIQEDPLLEETEQFKVIQ”: the “soluble on expression in E. coli” value is “soluble”.
As for “MEKPVICRIKEIIEESPTVKTFVVDKDFDFKPGQFAMLWLPGVDEKPFGFSSKNSFSVARVGEFTKKMHELKEGDIIGVRGPYGTYFEPIGDKVLAVAGGIGAAPIITAVEEFSKQGIEITTILGARTKEELLFLDRFEKVSRLEICTDDGSFGFKGFTTEKMKEVLKEEKFDLIITCGPEIMMKKVVEIANEYNIPVQVSMERYMKCGIGICGQCCVDDEGLCVCKDGPVFWGDKLKFIREFGKYKRDASGKKIYY”, the entry is “not soluble”.
Regarding “MEKTRANSHLRSQPIDWTIEEVIQYIESNDNSLAVHGDLFRKHEIDGKALLRLNSEMMMKYMGLKLGPALKICNLVNKVNGRDHHHHHH”, the “soluble on expression in E. coli” value is listed as “soluble”.
For “MELACHECGFKGEVQDFAFLCKNGCPACGESDMRQCPRCGAHVMFSRAAALEKEEMQMRDLCRELAGIERSDKPEVQKRAMELIGGLRRMNERWNIPQLGDFIKQRSRELFF”, the “soluble on expression in E. coli” value is “not soluble”.
For “MELDFDKMNGLVPAIIQDNETRKVLMLGFMNKEAYDKTVETGKVTFFSRTKNRLWTKGEESGNFLHVVSIKADCDNDTLLIQADPAGPVCHTGTDTCWGEKNEEPVMFLKALQDFIDKRHEEMPQGSYTTSLFESGINKIAQKVGEEAVETVIEATNGTNERLIYEGADLIYHMIVLLTSKGYRIEDLARELQERHSSTWKKH”, the “soluble on expression in E. coli” value is listed as “not soluble”.
Turning to “MELKKIVEAILFSSSEPVDARELRKITGKDKVEILNAIGELIKDYESRDTSIEIIKVGEKYLMRVKPQYAEYVERFTVREFDRGTLRTLAVIALKQPITLAKVAKIRGNKCYEHVKKLQERGLVKAEKKGRSTILTTTEEFATYFGLDSAEPEKIKEALKGYLEAE”, the “soluble on expression in E. coli” value is given as “soluble”.
Take “MELLCCEGTRHAPRAGPDPRLLGDQRVLQSLLRLEERYVPRASYFQCVQREIKPHMRKMLAYWMLEVCEEQRCEEEVFPLAMNYLDRYLSCVPTRKAQLQLLGAVCMLLASKLRETTPLTIEKLCIYTDHAVSPRQLRDWEVLVLGKLKWDLAAVIAHDFLAFILHRLSLPRDRQALVKKHAQTFLALCATDYTFAMYPPSMIATGSIGAAVQGLGACSMSGDELTELLAGITGTEVDCLRACQEQIEAALRESLREASQTSSSPAPKAPRGSSSQGPSQTSTPTDVTAIHLLEHHHHHH”: the “soluble on expression in E. coli” value is reported as “not soluble”.
For “MELRAVQEVLKEERLDGWLLYSFGGSNPLALEVLGLAHLHLTRRFAYLIPREGAPTLLCHAIEASLFPPLPGNRKTYHTWRGFLEGLAHLLGGMRRVALEYVPGGQIPYLSRVDGGTLDLLRGLGLELASSWPLLLLFQTWDEERLQSHRRAAAGLARAKDLALDFLRQNPEASEREVQSVLVRALEGEGLIFDHPPMVAFGKNAANPHHEPSEVRLEEGAVVLLDLWAKAPGGVYADLTWMAGKRPPEAAHRAFQAVARARDEAIAFVERAYREGRYPKGFEVDRLARKVLEEEGYGPYIRHRTGHNLGEEVHGSGPHLDDLETHDLRPLVPGLAFTVEPGVYLEAFGVRTEVDVYLHPTGPEVTTPLQEAITPL”, the “soluble on expression in E. coli” value is on record as “soluble”.
Regarding “MELRIFFDGNCPLCSAEMRQLKARDPDDHIELVDLNAENFSSRFSYIDKDYANTILHGETASGQVLLGLDVTCKAWALTGTRPWIQVLRLPLIKPLADWCYLRFAKHRYRISYLLTGKARCDSQCQLPKLEHHHHHH”, the “soluble on expression in E. coli” value is recorded as “soluble”.
As for “MELSPAERQLLLAHRLAVFDGCVVYDAQPPVSAEHVQRLAEGLAGPIPEDLLRLWRTCFGGRLGYDLEVDYDGHRHPFSFSELFYPDSDGYHDLWGWIEHERELAAEAAAEEGRDWNGKLAYLPFGGFEYLERLYVCVEPGPEHGAVIAWSHGLPPAWAGRLHQDSVTRLADDVGGLFRLLSFEQDPFDAENACGVADELLEALDALEAAGEPGKALKGRLEVLLRQRILDWRPALADGSLAAEPRLRQLALAEAAQDGDIDLLQRLRDAGCDFAETLRGRGGVLEACLARGRLEAARWLLDQGVAVHQDSLQIGAAHLDAVLAERLLRLGAISDPNTVLLALQYGDADAARIMARPLLEESPARANALRLALASRAERERSDARRVRSGKMGSNRSPDDYLALAERLERFLAELPG”, the entry is “not soluble”; as for “MEMVNAEAKQSVPLLTPYKMGRFNLSHRVVLAPLTRQKSYGSVPQPHAILYYSQRTSPGGFLIAEATGVSDTAQGYPDTPGIWTKEHVEAWKPIVDAVHAKGGIFFCQIWHVGRVSNRGFQPRRQAPISCTGKPIMPQMRANGIDEARFTPPRRLSIEEIPGIVNDFRLAARNAMEAGFDGVEIHGAHGYLIDQFMKDKVNDRTDEYGGSLQNRCKFALEVVDAVAKEIGPDRVGIRLSPFADYMESGDTNPEALGLYMVESLNKYGILYCHMIEPRMKTVGEIAACSHTLMPMREAFKGTFISAGGFTREDGNEAVAKGRTDLVAYGRWFLANPDLPKRFQLDAPLNKYNRSTFYTSDPVVGYTDYPSLESTA”, “soluble”.

The values are drawn from the DeepSol protein solubility set.
